From patent US20240209099A1 (SUZHOU TRANSCENTA THERAPEUTICS, published 2024) come the findings set out here.

For assay [1], the target named is T1, Recombinant Human VEGFR2/KDR Protein, His tag (hVEGFR2-his) (human, UniProt P35968 20-764).
T1 construct: Expressed in HEK293, bought from ACRO Biosystems; also called human VEGFR2-his; Human VEGFR2/KDR-His
Put plainly: ELISA, hVEGFR2-his coated. On the procedure:
Same protocol of Example 2 antibody screening by ELISA assay. Briefly, 0.5 μg/ml hVEGFR2-his was coated and serially diluted purified antibodies would bind to coated antigen. Using HRP conjugated goat anti-mouse Fc antibody could detect binding signals of each antibody.
The hybridoma antibodies have similar affinity to human.
In general terms: In an ELISA, binding on a coated surface is turned into a signal by an enzyme label.

Assay [2] deals with T1, Recombinant Human VEGFR2/KDR Protein, …. In words: SPR (Biacore), antibody captured by anti-Fc, antigen 2.5-80 nM. Here is the method:
A CM5 sensor chip was activated in each flow cell by 7-min injection (10 μl/min) of freshly prepared 1:1 50 mM N-hydroxysuccinimide (NHS): 200 mM 1-ethyl-3-(3-dimethylaminopropyl)-carbodiimide (EDC). Then anti-human Fc antibody (GE Healthcare) in a concentration of 10 μg/ml in 10 mM sodium acetate buffer PH 5.0 was injected onto the activated chip at 10 μl/min (HBS-EP running buffer: 10 mM HEPES, 150 mM NaCl, 3.4 mM EDTA, 0.005% surfactant P20, pH 7.4). The remaining active coupling sites were blocked by 7 min injection of 1M ethanolamine at 10 μl/min. The immobilization level of each flow cell is ˜9000RU. Antibodies were captured in FC2 by anti-human Fc IgG or anti-mouse Fc (GE Healthcare) to 200˜300RU. FC1 was used as the reference cell. Antigen was injected at varying concentrations (2.5 nM, 5 nM, 10 nM, 20 nM, 40 nM and 80 nM) after capture of antibody. The association time for antibody binding antigen is 180s. Surface Regeneration condition is 120s at 10 μl/min in Gly pH1.5. The signals with captured antibody subtracted from those without captured antibody were calculated with Biacore X100 evaluation software ver. 2.0 (Biacore).
A general note: Surface plasmon resonance follows binding to a sensor surface in real time, without labels.

The target of assay [3] is T2, human VEGFR2 on HUVEC cells (human, UniProt P35968 20-1356).
T2 construct: also called hVEGFR2 on HUVEC
Put plainly: flow cytometry on HUVEC cells, percent shifted cells (Shift%), anti-mouse IgG-PE. On the procedure: Log phase HUVEC cells were collected, counted and resuspended in FACS buffer (5% BSA+PBS). 2×10∧5 cells were added to each tube and then washed once with PBS (1500 rpm, 5 mins, RT). Then […] serial diluted VEGFR2 antibodies purified from hybridoma supernatant in FACS buffer were added into corresponding tubes and were incubated at 4° C. for 1 hr. The cells were then washed twice with 1 ml PBS, followed by adding 100 μl/tube of 2nd antibody (1:400 anti-mIgG (H+L)-PE, Cell signaling #8887) in FACS buffer. The cells were incubated at 4° C. for 0.5 hr and then washed twice with PBS, followed by resuspending cells in 600 μl PBS for each sample. The cells were then transferred into FACS tube and the bindings of the antibodies to the cells were detected using flow cytometry (BD Accuri C6) (see FIG. 3).
The percentage of positive binding cells was calculated and fit by Graphpad Prism Software.
Background: Flow cytometry measures light scatter and fluorescence of single cells or particles in a stream.

Assay [4] deals with T1, Recombinant Human VEGFR2/KDR Protein, …. Put plainly: competition ELISA on coated hVEGFR2-his: hybridoma antibody titrated against 100 ng/ml chimeric 002C, anti-human IgG Fc-HRP.
Assay [5] shares this target. Put plainly: competition ELISA on coated hVEGFR2-his: hybridoma antibody titrated against 100 ng/ml chimeric 054C, anti-human IgG Fc-HRP.
Assay [6] has the same target. Put plainly: competition ELISA: hVEGFR2-his coated (1 ug/ml), antibody titrated, then 0.3 ug/ml hVEGF-A added and bound VEGF-A detected; blocked ligand hVEGF-A. On the procedure:
High-binding clear polystyrene 96 well plates were coated with 100 μl/well of 1 μg/ml hVEGFR2-his overnight at 4° C. After washing and blocking, serial diluted antibodies (from 10 μg/ml to 0.0006 μg/ml) were added and incubate for 1 hour at RT. 0.3 μg/ml hVEGF-A (Acrobiosystem, Cat #VE5-H4210) were added and incubated for 2 hour at RT. Then 100 μl/well of 0.25 μg/ml Biotinylated Rabbit Anti-human VEGF-A (Peprotech, Cat #400-P10Bt) was then added for detecting bound VEGF-A. Then 100 μl/well of a solution of HRP conjugated Neutravidin antibody (Pierce, Cat #31001) and TMB were added sequentially. Finally, reaction was terminated using 0.64M H₂SO₄ and plates were read at 450 nm.

In another assay the target is T3, human VEGFR1 protein (human, UniProt P17948 27-756).
T3 construct: also called Sino Biological 10136-H08H
T3 sequence (P17948 27-756 limits assumed): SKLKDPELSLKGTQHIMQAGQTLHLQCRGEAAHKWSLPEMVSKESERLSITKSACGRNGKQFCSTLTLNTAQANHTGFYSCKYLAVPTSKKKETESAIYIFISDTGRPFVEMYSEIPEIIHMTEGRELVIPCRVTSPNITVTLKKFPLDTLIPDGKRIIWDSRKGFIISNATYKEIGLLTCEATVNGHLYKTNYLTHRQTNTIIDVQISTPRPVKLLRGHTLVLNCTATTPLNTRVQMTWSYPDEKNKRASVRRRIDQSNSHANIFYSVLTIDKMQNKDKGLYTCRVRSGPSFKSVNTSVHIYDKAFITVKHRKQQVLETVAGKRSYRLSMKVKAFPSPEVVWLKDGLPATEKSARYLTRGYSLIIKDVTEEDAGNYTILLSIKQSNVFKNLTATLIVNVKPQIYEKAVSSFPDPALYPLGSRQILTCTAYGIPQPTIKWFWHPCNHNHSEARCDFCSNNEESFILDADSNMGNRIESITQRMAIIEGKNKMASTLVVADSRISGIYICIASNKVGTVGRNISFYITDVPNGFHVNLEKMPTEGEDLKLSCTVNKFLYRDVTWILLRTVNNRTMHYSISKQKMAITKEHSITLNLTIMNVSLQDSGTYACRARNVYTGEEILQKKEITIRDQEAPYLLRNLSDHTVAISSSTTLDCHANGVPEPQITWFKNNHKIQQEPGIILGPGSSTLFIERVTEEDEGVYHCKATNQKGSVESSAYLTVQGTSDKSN
Put plainly: ELISA, 1 µg/ml antigen coated, 1 µg/ml antibody. On the procedure: (§1) Briefly, 1 μg/ml human VEGFR1 (Sino Biological, cat #10136-H08H), VEGFR2 (Acrobiosystem, cat #KDR-H5227) and VEGFR3 (Sino Biological, cat #10806-H08H) protein were coated overnight at 4° C. 1 μg/ml humanized antibodies (48-H3L1 and 54-H2L1, produced in CHO cells or Ramucirumab from Eli Lilly Germany, lot #20150819) were added for binding to coated antigen. Secondary antibody HRP conjugated goat anti-human Fc antibody were added for detection of binding signal.

The target of a further assay is T4, human VEGFR3 protein (human, UniProt P35916 25-776).
T4 construct: also called Sino Biological 10806-H08H
T4 sequence (looked up): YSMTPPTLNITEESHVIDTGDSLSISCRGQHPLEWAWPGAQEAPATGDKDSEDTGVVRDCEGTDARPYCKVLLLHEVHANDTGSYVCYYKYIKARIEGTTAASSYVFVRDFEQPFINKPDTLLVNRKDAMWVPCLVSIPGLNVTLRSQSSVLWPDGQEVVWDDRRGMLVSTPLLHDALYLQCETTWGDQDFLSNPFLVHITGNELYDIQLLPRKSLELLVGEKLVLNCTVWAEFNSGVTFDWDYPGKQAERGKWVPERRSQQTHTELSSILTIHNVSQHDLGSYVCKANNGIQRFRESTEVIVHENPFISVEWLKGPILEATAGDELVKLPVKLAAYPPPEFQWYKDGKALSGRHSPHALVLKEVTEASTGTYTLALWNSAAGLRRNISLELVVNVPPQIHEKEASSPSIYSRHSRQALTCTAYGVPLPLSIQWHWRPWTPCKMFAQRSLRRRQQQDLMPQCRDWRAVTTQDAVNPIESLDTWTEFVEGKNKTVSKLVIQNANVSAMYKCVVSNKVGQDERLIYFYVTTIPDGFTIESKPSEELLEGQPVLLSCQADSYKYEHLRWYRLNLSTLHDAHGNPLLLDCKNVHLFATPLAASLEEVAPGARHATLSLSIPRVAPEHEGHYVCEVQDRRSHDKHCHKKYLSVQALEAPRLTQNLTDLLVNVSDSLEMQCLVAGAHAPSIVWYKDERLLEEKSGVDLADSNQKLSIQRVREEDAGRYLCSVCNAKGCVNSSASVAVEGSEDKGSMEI
In words: ELISA, 1 µg/ml antigen coated, 1 µg/ml antibody. Here is the method: as §1

In assay [7] the target is T2, human VEGFR2 on HUVEC cells. Put plainly: flow cytometry on HUVEC cells, MFI, anti-human IgG (H+L)-PE. Here is the method: Same methods with Example 11. Briefly, Log phase HUVEC cells were collected and added to each tube. Then 100 μl/tube serial diluted humanized antibodies in FACS buffer were added and kept at 4° C. for 1 hr. Binding of antibodies to HUVEC was detected by PE signal of the 2nd antibody (anti-hIgG (H+L)-PE), which was added after the 1st antibodies. (see FIG. 15).

In assay [8] the target is T1, Recombinant Human VEGFR2/KDR Protein, …. In words: ELISA, hVEGFR2-his coated, anti-human Fc-HRP; antibody made in 293T cells. Here is the method: Same protocol of Example 4 except using HRP conjugated goat anti-human Fc antibody as secondary antibody. Binding to hVEGFR2-his and rhesus VEGFR2-his (Acrobiosystems, Cat #VE2-C52H3) were also analyzed head-to-head.
Same protocol of Example 9.

Assay [9] shares this target. Put plainly: ELISA, human VEGFR2-his coated, anti-human Fc-HRP; antibody made in CHO cells.
Assay [10] deals with T5, Recombinant Rhesus macaque VEGFR2/KDR Protein, His tag (rhesus macaque).
T5 construct: Expressed in HEK293, bought from ACRO Biosystems; also called rhesus VEGFR2-his; rhesus VEGFR2
T5 chain: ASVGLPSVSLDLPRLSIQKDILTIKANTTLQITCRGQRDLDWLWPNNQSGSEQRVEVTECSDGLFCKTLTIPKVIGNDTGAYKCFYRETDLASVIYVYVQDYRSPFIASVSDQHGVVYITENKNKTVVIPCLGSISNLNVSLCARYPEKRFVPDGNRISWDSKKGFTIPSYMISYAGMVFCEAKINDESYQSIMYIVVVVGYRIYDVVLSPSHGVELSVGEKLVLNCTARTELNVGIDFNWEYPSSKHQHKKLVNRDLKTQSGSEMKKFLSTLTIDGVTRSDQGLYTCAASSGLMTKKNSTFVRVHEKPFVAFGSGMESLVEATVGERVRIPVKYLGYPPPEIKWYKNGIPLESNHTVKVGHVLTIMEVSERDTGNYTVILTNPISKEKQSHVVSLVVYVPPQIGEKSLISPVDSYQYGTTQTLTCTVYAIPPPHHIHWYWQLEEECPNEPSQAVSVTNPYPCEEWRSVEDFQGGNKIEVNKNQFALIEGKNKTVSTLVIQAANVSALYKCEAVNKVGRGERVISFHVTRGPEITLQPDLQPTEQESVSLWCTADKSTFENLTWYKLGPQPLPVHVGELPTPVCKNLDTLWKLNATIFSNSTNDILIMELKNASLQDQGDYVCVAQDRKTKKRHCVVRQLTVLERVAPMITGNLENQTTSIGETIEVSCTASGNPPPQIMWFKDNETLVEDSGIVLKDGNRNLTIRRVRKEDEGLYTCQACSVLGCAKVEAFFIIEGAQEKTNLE
In words: ELISA, rhesus VEGFR2-his coated, anti-human Fc-HRP; antibody made in CHO cells.

Assay [11] deals with T1, Recombinant Human VEGFR2/KDR Protein, …. Put plainly: competition ELISA: VEGF-A coated (0.25 ug/ml), antibody titrated together with 1 ug/ml human VEGFR2, detection with mouse anti-VEGFR2 serum and anti-mouse Fc-HRP; blocked ligand VEGF-A. Here is the method: (§2) For this assay, 0.25 μg/ml VEGF-A was coated on ELISA plate before a mixture of chimeric antibodies and VEGFR2 were added. To detect free VEGF-A (not bind to VEGFR2), 1:1000 diluted mouse serum (mouse previous immunized with human VEGFR2) were added and HRP conjugated goat anti-mouse Fc antibody was used as secondary antibody.
(§3) Same protocol of Example 10. Briefly, 0.25 μg/ml VEGF-A was coated overnight at 4° C. After blocking, serial diluted 54-H2L1, 48-H3L1, Ramucirumab and 1 μg/ml human VEGFR2 or rhesus VEGFR2 were added at the same time for 2 hour-incubation. After wash, mouse serum containing polyclone VEGFR2 antibody and HRP conjugated goat anti-mouse Fc antibody were added for detection of free VEGF-A coated on the plates (see FIGS. 13A and 13B).

Assay [12] deals with T5, Recombinant Rhesus macaque VEGFR2/KDR …. In words: competition ELISA: VEGF-A coated (0.25 ug/ml), antibody titrated together with 1 ug/ml rhesus VEGFR2, detection with mouse anti-VEGFR2 serum and anti-mouse Fc-HRP; blocked ligand VEGF-A. Here is the method:
as §2, §3

For orientation: EC50 means the concentration needed to bring the measured effect to its halfway point. Usually Kd stands for a measure of binding affinity in units of concentration. For orientation: koff means the first-order rate constant of dissociation. As usually defined, the kon is a measure of how fast the partners come together. For orientation: IC50 means the concentration that inhibits the measured activity by half. In general, EC50 (read off the curve) refers to the concentration that produces a half-maximal response. Lower therefore signals greater potency.

B1: 048 (mouse hybridoma antibody) (antibody, V domains shown)
VH: EVQLVESGGDLVKPGGSLKLSCAASGFTFSMYGMSWVRQTPDKRLEWVASISIGGSYTYYADSVEGRFTISRENAKNTLFLQMNSLKSEDTALYYCAREMDGNYDYWGHGTTLTVSS
VL: DVMITQDELSNPVTFGESVSISCRSSKSLLYKDGKTYLNWFLQRPGQSPQLLIYLMSTRASGVSDRFSGSGSGTDFTLEISRVKAEDVGIYYCQQLVEYPFTFGSGTKLEIK
notes: Mouse antibody purified from hybridoma; also called mAb048; 5G4
On to B1, for which the EC50 in assay [1] turned out to be 0.0232 µg/mL; in assay [3], 0.024 µg/mL. Further, in [2], the Kd is less than 1 pM. In addition, the koff in [2] was less than 1e-07 s⁻¹. For the same molecule, the kon in [2] was 1.14e+06 M⁻¹ s⁻¹. Also, the “IC50 (read off the curve)” value was approximately 0.07 µg/mL in assay [4] and approximately 0.2 µg/mL in assay [5]. Further, the IC50 in [6] worked out at 0.0416 µg/mL.

B2: 48-H3L1 (humanized Mab48) (antibody, human IgG1, V domains shown)
VH: EVQLVESGGGLVKPGGSLRLSCAASGFTFSMYGMSWVRQAPGKRLEWVASISIGGSYTYYADSVKGRFTISRDNAKNTLYLQMNSLRAEDTAVYYCAREMDGNYDYWGHGTTLTVSS
VL: DIVITQDELSLPVTFGESVSISCRSSKSLLYKDGKTYLNWFLQRPGQSPQLLIYLMSTRASGVSDRFSGSGSGTDFTLKISRVEAEDVGIYYCQQLVEYPFTFGSGTKLEIK
notes: also called 48-H3L1 (CHO)
For B2, the binding result in the assay with human VEGFR1 protein and with human VEGFR3 protein was “no binding (tested: 1 µg/ml)” in each case. In [7], the “EC50 (read off the curve)” value was approximately 0.2 µg/mL. Besides, the EC50 stood at 0.0205 µg/mL in assay [8], 0.00899 µg/mL in assay [9] and 0.00864 µg/mL in [10]. Further, the IC50 in assay [11] was determined as 0.727 µg/mL; in assay [12] it was 0.833 µg/mL.
